We go through 2 molecules from patent publication US9889195B2, “Immunogenic composition and uses thereof” (THE UNIVERSITY OF MELBOURNE, priority 2009, dated 2018).

The nature of the series: Overall electrostatic charge of lipopeptide or protein antigen. Type of series: physicochemical.

Consider hen egg lysozyme [HEL], for which the overall charge result is “+8”.

B1: ovalbumin (protein, UniProt P01012 2-386, looked up)
Ovalbumin: GSIGAASMEFCFDVFKELKVHHANENIFYCPIAIMSALAMVYLGAKDSTRTQINKVVRFDKLPGFGDSIEAQCGTSVNVHSSLRDILNQITKPNDVYSFSLASRLYAEERYPILPEYLQCVKELYRGGLEPINFQTAADQARELINSWVESQTNGIIRNVLQPSSVDSQTAMVLVNAIVFKGLWEKAFKDEDTQAMPFRVTEQESKPVQMMYQIGLFRVASMASEKMKILELPFASGTMSMLVLLPDEVSGLEQLESIINFEKLTEWTSSNVMEERKIKVYLPRMKMEEKYNLTSVLMAMGITDVFSSSANLSGISSAESLKISQAVHAAHAEINEAGREVVGSAEAGVDAASVSEEFRADHPFLFCIKHIATNAVLFFGRCVSP
notes: model protein antigen (Sigma Aldrich)
Molecule B1 gave an overall negative charge of 11.
